Here are results for 49 sequences from the domain aggregation screens of Martell et al. (2025).

The data set is described as follows: soluble fraction after stress (log2 fold change); higher = more stays soluble; pooled small domains, quantitative proteomics. Particulars: stress: 50 degC. In short, it runs like this: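 Quantitative proteomics served as the high-throughput read-out for pooled custom libraries of small protein domains. Each was stressed at 50°C. Aggregation propensity is expressed as the base-two log fold change in soluble protein after stress. A higher value means a larger share of the protein remains in solution.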

With “HMVMTTVPEVLGMDIRTAASMLTGKNLKYDYDLVESDKPKDEVIEQDQAKGTEVPEGTVVKLKVSKGPA”, the “soluble fraction (log2)” value was 0.0583.
Take “HMYRYGETPMVVVPDLIGRTVSDIYEEMNADFRLEKFGNGNTVISQAPKPGERVEQGSVIRVYLSGQDQ”: the “soluble fraction (log2)” value came out at 0.157.
The value for “HMANEGWDIYKLDIRNHKQPNGEYYSEKEIQSTINNTFGKGSFNVDWKKYEKDKEYREKTNYYYFQAKYFV” was -0.19; that for “HMSKTQYTFKEVGSQFQLFAPSTKHTIMISADHPKYGWLTNQDQGRVINVYDTGKMTSSQDYYGLYKEVT” was -0.155.
For “HMIGGEDEILKVVLEVLEEKPEAIEQYKNGRTNIVDFLVGQVMKKTRGQANPATTREFMIREIEK”, the “soluble fraction (log2)” value is 0.0588.
For “HMRSDHVFTSHLARRDKYISELESLSDSARDDHIQTIKEEDEYLLKYRRTRNLFGIPLNDEMKQFEPFNY”, the “soluble fraction (log2)” value is -0.131.
For “HMDAEWRTLTLAPEQHQQRLDRALADSLPEFSRSYVQQLIDTGMVRVNGVLAAKSAQRVKALDQVQVELR”, the “soluble fraction (log2)” value is -0.229.
The value for “HMSDPDPAEQALLRQFMTRYAAYRRRGQHPAGAFRTASLEVFGQEPSGDLRDVIVDLESGLV” was -0.137; that for “HMWKSEAGKKIIESLAQKYNKSNAQIILRWHIQMGYIVIPGARSENHIKENINIFDFKLTNEEINNILKLN” was -0.345.
With “HMNTEVDKVLLRSGEAYFGEVLLRNDELVMMKTQDGARFQFPVSEIKSIEKVSVADALRHINS”, the “soluble fraction (log2)” value was found to be 0.0758.
Then “HMLKTADAIASVLLTRIQAGEFSAGRLPAERALSEAFSTTRITLREALGKLEAQGMIYRELRRGWFIA”, with -1.76; and “HMGVTGYPNPTREHITWDDARRIEVWNAYGVPVADLRFARGVLDVAGWPVGTYVARIDGGRSVRFVVI”, with -0.19; and “HMNYIEWKNTFKKYLYLLPIKEEKETLAYFDEQYNKLNPKDLDNVENIFSDPIDKAAFVVAFYLEMEDEIK”, with -0.612.
Then “HMTSNSLNLKDEISAFLTKNAGISYSAERIAHALNMDNADQFTPIIQTLAQLEREKKVRVTDKGEFEAVIK”, with 0.0897.
The value for “HMEIIFVEHKVRPGESVWLIARKYKVKKNHILAVNNLSEKSIIRPKQILKIPTSGYDQYKKSVE” was -3.22; that for “HMGGREEAGTDIARLLGYINDIHGEELIAKLEYYQKMLGSENFAVLMSRLPDGQKKELREQNLYSEYV” was -0.145.
“HMLYKNIAKKLRFRINSDEFAIGDVLPTERQLMEEYQASRVSIRKAIDELVAIDLIEKKQGSGTYIKQKEV”: the “soluble fraction (log2)” value was -0.919.
For the sequence “HMDKQEKIHKKKIIILEALKRLLQNDVYSRITVQAVADEAGFSKGGLLHYFPTKEEMYIEFMEY”, the “soluble fraction (log2)” value is -0.0218.
The value for “HMAPLATLEADGNGAVKLPNLAGHAIREVAAALGGANLALIPIGSGTSWKQNPAPGTILHKGDTVTVYF” was -0.0832.
On to “HMATEWLSSKEAAQRLGVSAATLYAYVSRGLLRSEGSSGQRERRYRADDVAQLRRRREVGRKAESIAASTL”, for which the “soluble fraction (log2)” value is -0.433.
The value for “HMPLSVRQRMSDILSNLKTSDFTNFADLFDPKEGRTGITVTFIAILELLREFLIEVVQSDHYQPLHVRAAS” was -0.291; that for “HMVSQELIMLGNRIREYRKERGFSQEILAEKSGVSTNTISRIEGGQMAMSVGILQRIVKALGVDANVMLG” was -0.332.
With “HMNNLTEEAINHLVLEVKNVLLTDALFLGKATDSQLMLRIKETIDQRNGQYNIGMNDRERIARRVFARLR”, the “soluble fraction (log2)” value was -0.189.
As for “HMGSLRSALDGIPGIGEQYQKRLLAQFGSVKAMRSASVEDFEAVRGIGRAKAQALYDALHAG”, the “soluble fraction (log2)” value is -0.131.
The value for “HMEIETPEIRAIHDLLELLANKAKKPEQEQFVQAHPEVQWAKVEANKNGTFAVGKVKAYLKTLQA” was -0.308; that for “HMQQLDDDTVAYVADNGIAVKSKNGKELSVDTSGLSYDIIMDMFRNLPRNGDFFSSKYWSDNIQKAQAR” was 0.41.
In the case of “HMGIERTNADTSFSVNVYGKELIITSNKPLVVNIYAIDGTLVRTEQVTIGVNTVSGLPSGIYVVGQQKVVI”, the “soluble fraction (log2)” value amounted to 0.297.
In the case of “HMYAMTAEDWIVSGNRKYINDDLQGAIADYTKAIEIDPNYAAIYLVRGKAKYELKNYQGAIEDYTKAIE”, the “soluble fraction (log2)” value is -1.13.
Then “HMEGVSSESVKEMLKSIIDGEDPHNPVSDQRITDILNSRGINISRRTVAKYRDELGIASSSRRKRY”, with 0.0818.
The value for “HMQPQLFRVIADDGLNIRSGPGPEYPPVAPMLRKGTQVELLQAGDRWSKVEVVGSTDVEGWVNQRYLQAV” was 0.0476.
“HMKQKAEVIFVSKTIMEALSKGVRLTPENLKSETELPIDDFYARLKELIDNGSVVESRENGESYLEAGN”: the “soluble fraction (log2)” value came to 0.0977.
Consider “HMSAEDQRRASQEAAYRFMQVMAGNEAGFEDAARALFAGDNHRFEVLIQSWPDDVRDHVSLLSVDAFA”, for which the “soluble fraction (log2)” value was -0.615.
Then “HMYKTKVDIAYDMLMERITEGVYKPGEKLVITHISKELGISDIPVREAIRRLESEGYVKILPNQGAIVYD”, with -0.395; and “HMPSSIEGIEKYLGSGMIRGIGAVYAKRLVKQFGKDVFDIIEETPERLREVEGIGPIRAARIISGWADQ”, with -0.41.
With “HMTNYNTEKIIPEEQAGKRLDVVLANIFPEFSRSRLKNWIIDGFILVDGKVLRPRDFVTGGELVSIDVIV”, the “soluble fraction (log2)” value was -0.1.
Turning to “HMYPDNSGDIQQLAQNIFRQENVSVDRDGLALISSRLGSDHAATRSEIEKLALLAGPGGTLTFETISEVLG”, the “soluble fraction (log2)” value is -0.144.
With “HMENVVESIYNKMVESITNGQWAAGSKIPTENELAKTYQVSRSSVRQAISRLKALGLLESRQGSGTVIKK”, the “soluble fraction (log2)” value came out at 0.272.
Then “HMTWDSFIGYTVTDVQKGYLGEITDVDETTINVLLRVDHKGEELLIPAVEELITEADHEARSLTVSLPEGL”, with -0.0571.
Then “HMDIGTYTVTASALNIRQYPTASSAKTGSYPNGSIVTIYEYLTDGSWGRTDDGWISMNYVSRRY”, with -2.01.
Then “HMFERISELLTDEELAVYKRGRNANASSVPKHADIADYRRATGVEALFGYLYIKGEIDRINQLFELA”, with -0.23; and “HMVVLNQEQIKFIDHYLQVSKVRYVDVRSELTDHIATAVELKMQDEALDFYEAFKAFIAVNKSQLLQRN”, with -1.45.
In the case of “HMTRQEFIRKLQEALNGKLDAATIQDHLKFYDDYIIEEMRKGKSEQEVLELLGDPWAIAKTIVDAS”, the “soluble fraction (log2)” value is 0.349.
Consider “HMQPFTELTPREREILGHLAEGQSNKVIARHLDISDGTVKLHVKAILRKLGVHSRVEAAVMAVEHGIR”, for which the “soluble fraction (log2)” value is -1.31.
The value for “HMARKFQKDTGYLNKKERTWLLDFFPSLKKYLYTGAYIRSIIVVESNVTYTDKELPSNYTFTYKFA” was -0.252; that for “HMTSIISLAKARSIALQKVPGATSKNIHLSLDDEDDKQVYEGEIKYKQMEYVFEIDAKTGTFLKWTSERD” was -1.66; that for “HMETWKLYKRAYKKYYARYMKGNMSEADFKAWATQAAADRDAAIEQITPEIDAALKAQIIEQLREKLNR” was -0.856.
For “HMVITEQTVTVKYLYEDDTEAAPEHSETHKTGETFEIESPKIDGFTPDYELITGTIANDDLVYIVRYKTTP”, the “soluble fraction (log2)” value was -0.282.
With “HMNIDNTWQPSEDVVEILTRSGINEDFINELIPEFIVYWTERPGTLVSYNSKFIEHVRLKWAQHSAEI”, the “soluble fraction (log2)” value came out at 0.0597.
With “HMGADGIPGKNGENGETSYVHFAYATSADGKTGFSTTDTVGKTYMGQYADFEKADSEDPTKYRWGKFQGP”, the “soluble fraction (log2)” value was 0.102.
